Target: Fc-tagged extracellular domain of mouse RPTPσ (wild type) (mouse) (UniProt B0V2N1)
Experiment: ELISA: Fc-tagged RPTPσ (2 µg/ml) on protein G plates; biotinylated aggrecan 5 µg/ml preincubated with protamine 0-5 µg/ml; streptavidin-HRP, A450

Chain of Fc-tagged extracellular domain of mouse RPTPσ (wild type) (mouse) (B0V2N1 30-1257): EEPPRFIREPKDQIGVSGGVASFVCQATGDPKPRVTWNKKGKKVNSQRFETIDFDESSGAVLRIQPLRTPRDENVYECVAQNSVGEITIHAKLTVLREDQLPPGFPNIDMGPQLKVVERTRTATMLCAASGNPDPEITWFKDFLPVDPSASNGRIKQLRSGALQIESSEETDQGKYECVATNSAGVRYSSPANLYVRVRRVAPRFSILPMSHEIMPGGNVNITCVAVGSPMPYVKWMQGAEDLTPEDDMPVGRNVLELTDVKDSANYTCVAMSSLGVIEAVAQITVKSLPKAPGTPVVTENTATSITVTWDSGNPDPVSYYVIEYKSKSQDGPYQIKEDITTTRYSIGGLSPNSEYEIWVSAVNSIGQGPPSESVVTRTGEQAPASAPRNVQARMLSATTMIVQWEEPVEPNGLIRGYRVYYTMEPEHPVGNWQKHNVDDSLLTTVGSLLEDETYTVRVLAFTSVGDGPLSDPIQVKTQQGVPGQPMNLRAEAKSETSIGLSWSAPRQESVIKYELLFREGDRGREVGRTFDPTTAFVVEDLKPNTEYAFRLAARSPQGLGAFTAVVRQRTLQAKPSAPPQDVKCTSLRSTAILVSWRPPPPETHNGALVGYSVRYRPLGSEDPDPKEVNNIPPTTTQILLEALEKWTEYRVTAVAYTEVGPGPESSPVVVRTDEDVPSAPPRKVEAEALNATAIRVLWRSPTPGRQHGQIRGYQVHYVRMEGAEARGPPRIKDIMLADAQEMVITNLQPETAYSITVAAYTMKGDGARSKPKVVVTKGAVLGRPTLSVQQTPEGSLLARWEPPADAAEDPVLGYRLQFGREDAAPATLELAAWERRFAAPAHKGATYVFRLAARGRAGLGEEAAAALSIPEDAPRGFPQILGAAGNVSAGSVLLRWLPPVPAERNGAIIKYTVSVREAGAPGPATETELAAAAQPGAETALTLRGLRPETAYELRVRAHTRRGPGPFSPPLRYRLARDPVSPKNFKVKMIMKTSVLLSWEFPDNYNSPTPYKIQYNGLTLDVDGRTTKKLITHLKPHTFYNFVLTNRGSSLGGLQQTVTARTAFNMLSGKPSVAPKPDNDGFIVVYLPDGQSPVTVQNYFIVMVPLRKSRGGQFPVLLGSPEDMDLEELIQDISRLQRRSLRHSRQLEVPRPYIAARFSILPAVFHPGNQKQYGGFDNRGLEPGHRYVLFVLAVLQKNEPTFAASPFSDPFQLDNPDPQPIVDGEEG
Chain of biotinylated bovine aggrecan, P13608 17-2364 (ligand; biotinylated (sites not stated); natural chondroitin sulphate side chains of the proteoglycan) (P13608 17-2364 limits assumed): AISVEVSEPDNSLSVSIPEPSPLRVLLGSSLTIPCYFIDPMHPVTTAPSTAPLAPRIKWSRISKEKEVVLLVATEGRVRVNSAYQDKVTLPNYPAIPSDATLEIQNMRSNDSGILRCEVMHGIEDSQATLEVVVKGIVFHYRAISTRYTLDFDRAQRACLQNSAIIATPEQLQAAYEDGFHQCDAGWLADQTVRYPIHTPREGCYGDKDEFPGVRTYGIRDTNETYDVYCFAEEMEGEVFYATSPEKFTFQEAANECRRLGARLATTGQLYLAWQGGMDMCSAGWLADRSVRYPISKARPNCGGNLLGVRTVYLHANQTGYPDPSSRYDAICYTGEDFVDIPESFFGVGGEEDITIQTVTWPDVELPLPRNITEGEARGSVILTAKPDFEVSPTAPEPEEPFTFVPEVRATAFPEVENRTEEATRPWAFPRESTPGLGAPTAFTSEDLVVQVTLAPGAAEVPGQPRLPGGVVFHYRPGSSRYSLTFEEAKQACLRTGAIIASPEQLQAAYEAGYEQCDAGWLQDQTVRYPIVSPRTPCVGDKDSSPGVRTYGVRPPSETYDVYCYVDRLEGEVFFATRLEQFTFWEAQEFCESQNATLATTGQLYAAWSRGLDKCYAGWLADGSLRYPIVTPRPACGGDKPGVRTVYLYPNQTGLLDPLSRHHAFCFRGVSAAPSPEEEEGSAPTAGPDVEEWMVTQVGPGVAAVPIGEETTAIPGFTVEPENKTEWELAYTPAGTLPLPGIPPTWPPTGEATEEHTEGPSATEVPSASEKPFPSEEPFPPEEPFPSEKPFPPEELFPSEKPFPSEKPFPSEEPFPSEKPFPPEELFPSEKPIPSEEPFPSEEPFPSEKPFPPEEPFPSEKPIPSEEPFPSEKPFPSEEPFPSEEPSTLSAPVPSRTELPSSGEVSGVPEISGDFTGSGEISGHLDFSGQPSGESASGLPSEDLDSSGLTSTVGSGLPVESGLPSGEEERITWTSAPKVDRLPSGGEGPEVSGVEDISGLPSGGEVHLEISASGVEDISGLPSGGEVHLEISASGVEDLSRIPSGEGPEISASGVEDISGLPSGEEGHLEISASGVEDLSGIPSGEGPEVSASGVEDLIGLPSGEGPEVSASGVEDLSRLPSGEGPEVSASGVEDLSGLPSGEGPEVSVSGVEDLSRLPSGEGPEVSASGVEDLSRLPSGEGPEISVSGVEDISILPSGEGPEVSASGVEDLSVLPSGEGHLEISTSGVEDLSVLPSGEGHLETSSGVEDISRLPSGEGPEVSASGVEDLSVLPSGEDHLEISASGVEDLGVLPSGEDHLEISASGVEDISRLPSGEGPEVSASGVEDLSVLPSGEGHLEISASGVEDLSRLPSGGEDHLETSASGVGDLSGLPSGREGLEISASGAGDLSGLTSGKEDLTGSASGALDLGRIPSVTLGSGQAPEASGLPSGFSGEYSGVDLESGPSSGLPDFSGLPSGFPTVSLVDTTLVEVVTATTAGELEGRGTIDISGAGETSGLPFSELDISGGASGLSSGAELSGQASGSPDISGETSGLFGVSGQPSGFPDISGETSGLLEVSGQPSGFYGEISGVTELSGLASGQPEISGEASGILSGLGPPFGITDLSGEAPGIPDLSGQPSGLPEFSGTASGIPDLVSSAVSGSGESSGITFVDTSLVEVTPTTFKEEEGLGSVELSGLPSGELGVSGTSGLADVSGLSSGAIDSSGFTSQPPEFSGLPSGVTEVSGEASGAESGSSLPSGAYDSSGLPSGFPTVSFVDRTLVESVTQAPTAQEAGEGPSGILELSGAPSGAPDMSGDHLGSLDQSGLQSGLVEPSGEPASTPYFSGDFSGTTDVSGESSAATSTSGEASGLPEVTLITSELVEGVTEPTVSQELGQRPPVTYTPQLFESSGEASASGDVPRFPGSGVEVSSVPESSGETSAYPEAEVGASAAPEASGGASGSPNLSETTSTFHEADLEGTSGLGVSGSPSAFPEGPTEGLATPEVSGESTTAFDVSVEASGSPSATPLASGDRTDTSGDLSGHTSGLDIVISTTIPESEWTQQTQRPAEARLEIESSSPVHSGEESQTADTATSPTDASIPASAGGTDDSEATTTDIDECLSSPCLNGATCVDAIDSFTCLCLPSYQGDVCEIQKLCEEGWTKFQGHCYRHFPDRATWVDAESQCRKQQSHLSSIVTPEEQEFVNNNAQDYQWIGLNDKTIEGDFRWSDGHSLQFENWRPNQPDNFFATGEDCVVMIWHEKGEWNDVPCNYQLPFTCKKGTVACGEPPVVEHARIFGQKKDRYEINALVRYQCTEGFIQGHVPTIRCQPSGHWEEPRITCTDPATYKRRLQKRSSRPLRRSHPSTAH

**Q.** How did the fold increase of binding in the presence of protamine turn out when “biotinylated bovine aggrecan, P13608 17-2364 (ligand; biotinylated (sites not stated); natural chondroitin sulphate side chains of the proteoglycan)” was run?
**A.** 2 fold

Reference: patent US20160272689A1
